Experiment: yeast display, Sf9 membrane polyspecificity reagent, FACS + sequencing; frameworks hold sequencing errors
Method in brief: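 In a synthetic yeast display library (Saccharomyces cerevisiae BJ5465), nanobody expression was induced with galactose for 36–48 hours. FACS gates were set low and high (top ~1%) using anti-HA fluorescence for expression and streptavidin fluorescence for binding of the Sf9 membrane reagent. Each polyreactivity label is drawn from the gate of origin.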

Sequence	polyreactivity (PSR sort gate)
QVQLVESGGGLVQAGGSLRLSCAASGGIFIFYAMGWYRQATGKERELVAASSNVSSTNYADSVKGRFTISRDNAKNTVYLQMNSLKPEDTAVYYCAAYYYYFYHKVIWYELDYWGQGTQVTVSS	low polyreactivity
QVQLVESGGGLVQAGGSLRLSCAASGRIFRWNAMGWYRQAPGKERELVASITGGDITNYADSVKGRFTISRDNAKNTVYLQMNSLKPEDTAVYYCAARGYGRGRPVASYGYDYWGQGTQVTVSS	low polyreactivity
QVQLVESGGGLVQAGGSLRLSLAASGSIFARYAMGWYRQAPGKERELVAAITYTGGRTYYADSVKGRFTISSDYAKNTVYLKMNSLKPEDTAVFYCAKDGQATVRRGYDYWGQGTQVTVSS	high polyreactivity
QVQLVESGGGLVQAGGSLRLSCAASGRIFYRYAMGWYRQAPGKERELVAAIRSGGRTNYADSVKGRFTISRDNAKNTVYLQMNSLKPEDTAVYYCNAVWRYYRKRRAGDFGYWGQGTQVTVSS	low polyreactivity
QVQLVDSGGGLVQAGGSLRLSCAASGSNFVWYAMGWYIQAPGKEREMVAAITWSGGSTYYADSVKGRFTISRDNAKNTVYLPMNSLKPEDSAVYYFNAVSYRYYSKLGSWGQGTQVTLSS	high polyreactivity
QVQLVESGGGLVQAGGSLRLSCAASGRILKYYAMGWYRQAPGKERELVAAITSDVNTYYADSVKGRFTISRDNAKNTVYLQMNSLKPEDTAVYYCNADADDYRDYQDYDYWGQGTQVTVSS	low polyreactivity
QVQLVESGGGLVQAGGSLRLSCAASGRTFAYNAKGWYRQPPGKERELVASITVGGGSTYYADSVKGRFTISRDNAKNTVYLQMNSLKPEDTAVYYCAARVPSWKYDYWGQGTQVTVSS	high polyreactivity
QVQLVESGGGLVQAGGSLRLSCAASGRTFRYNVMGWYRQAPGKERELVAAIRKRSGSTYYADSVKGRFTISRDNAKNTVYLQMISLKPEDTAVYYCNTEYHYGTASASDYWGQGTQVTVSS	high polyreactivity
QVQLVESGGGLVQAGGSLRLSCAASGRTFGYYAMGWYRQAPGKEREFVAAISSRGGSTRYADSVKGRFTISRDNAKNTVYLQMNSLKPEDTAVYYCNKGYYRHPDESDYGGQGTQVTVSS	high polyreactivity
QVQLVETGGGLVQAGGSLRLSCAASGFIFEFYAMGWYRQAPGKERELVAAITGRGGSTYYADSVKGRFTISRDNAKNTVYLQMNSLKPEDTAVYYCAASIGGQVPGFGWYDYWGQGTQVTVSS	low polyreactivity
QVQLVESGGRLVQAGGSLRLSCAASGLIFAWYAMGWYRQAPGKQRELVATISWNGDRTYYADSVKVRFTISRDNAKNTVYLQMNSVKPVDSAVYYCAARFGSGFNYWGQGNQVTVSS	high polyreactivity
QVQLQESGGGLVQAGGSMRLSCAASGYFSNYYSLGLYRQAPGKERELVAGIGTGTSTYYADSVKGRFTISRDNAKNTVYQQMNSLKPEDTAVYYCAAPLDTSSRIFDYWGQGTQVTVSS	low polyreactivity
QVQLVESGGGLVQAGGSLRLSCAASGSTFDYYAMGWYRQAPGKERELVAAISGSGGSTYYADSVKGRITISRDNAKNTVYLQMNSLKPEDTAVYYCATVRSRLFGQYYYWGQGTQVTVSS	high polyreactivity
QVQIVESGGGLVQAGGSLRLSCAASGRIFSQNTMGWYRQAPGKERELVAVISWRGGRTSYADSVKGRFTISRDNAQNTVYLQMNSLKPEDTAVYYCNAKRYAGSNYDYWGQGTQVTVSS	high polyreactivity
QVQLVESGGGLVQAGGSLRLSCAASGRTFAYNAMGWYRPAPGKERELVAAITGSGGRTYYADSVKGRFTISRDNAKNTVYLQMNSLKAEDTAVYYCAVGLPSRYDYWGQGTQVTVSS	low polyreactivity
QVQLVESGGGLVQAGGSLRLSCAASGSIFHNNAMGWYRQAPGKERELVASITSRGGSTYYADSVKGRFTISRDNAKNTVYLQMNSLKPEDTAVYYCAARPYARVKTHGYWGQGTQVTVSS	low polyreactivity
QVQLVESGVGIGQAGGSLRLTCAASGRTVSKYGKGWYRHAPGKEREMVAAISGRGGSTYYADSVKGRFTISRDHAKNTVYLQMNSLNPEDNAVYYCAQDLSYRPHGHGDGHYDFWGQGTQVTVSS	low polyreactivity
